In the supplement of paper PMC10567573:

B1: ZNF449 (parent)
chain: CTHCSKSFRQRAGLIMHQVTHFRG
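Also: lentivirally expressed fusions sorted by FACS into six bins by GFP to DsRed ratio, PSI derived from sequencing read proportions per bin multiplied by bin number.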

Variants of: B1
Experiment: protein stability index of a GFP-peptide fusion (GPS, HEK-293T) (PSI 1-6); higher = more stable
Details: c terminus: a fixed tail appended
Variant CTHCSKSFRQSAGLIMHQVTHFRG [R11S] has a protein stability index of 1.48. For CTHCSKSFRQEAGLIMHQVTHFRG [R11E], the protein stability index was 2.79. In the case of CTHCSKSFRQFAGLIMHQVTHFRG [R11F], the protein stability index is reported as 2.46. CTHCSKSFRQAAGLIMHQVTHFRG [R11A] gave a protein stability index of 2.28. Work on CTHCSKSFRQMAGLIMHQVTHFRG [R11M] yielded a protein stability index of 3.23. CTHCSKSFRQHAGLIMHQVTHFRG [R11H] showed a protein stability index of 1.87. Variant CTHCSKSFRQYAGLIMHQVTHFRG [R11Y] has a protein stability index of 2.29. CTHCSKSFRQPAGLIMHQVTHFRG [R11P] gave a protein stability index of 1.84. CTHCSKSFRQDAGLIMHQVTHFRG [R11D] gave a protein stability index of 1.58. Work on CTHCSKSFRQLAGLIMHQVTHFRG [R11L] yielded a protein stability index of 3.44. Variant CTHCSKSFRQKAGLIMHQVTHFRG [R11K] has a protein stability index of 1.82. Variant CTHCSKSFRQWAGLIMHQVTHFRG [R11W] has a protein stability index of 1.94. CTHCSKSFRQQAGLIMHQVTHFRG [R11Q] showed a protein stability index of 1.8. CTHCSKSFRQCAGLIMHQVTHFRG [R11C] showed a protein stability index of 3.42. CTHCSKSFRQGAGLIMHQVTHFRG [R11G] gave a protein stability index of 2.28. CTHCSKSFRQTAGLIMHQVTHFRG [R11T] showed a protein stability index of 1.69. In the case of CTHCSKSFRQNAGLIMHQVTHFRG [R11N], the protein stability index is reported as 1.8. CTHCSKSFRQVAGLIMHQVTHFRG [R11V] showed a protein stability index of 2.23. Work on CTHCSKSFRQRIGLIMHQVTHFRG [A12I] yielded a protein stability index of 2.36. For CTHCSKSFRQRGGLIMHQVTHFRG [A12G], the protein stability index was 2.44. CTHCSKSFRQRCGLIMHQVTHFRG [A12C] showed a protein stability index of 2.29. In the case of CTHCSKSFRQREGLIMHQVTHFRG [A12E], the protein stability index is reported as 3.82. With CTHCSKSFRQRPGLIMHQVTHFRG [A12P] the protein stability index was 2.69. Work on CTHCSKSFRQRLGLIMHQVTHFRG [A12L] yielded a protein stability index of 2.11. With CTHCSKSFRQRDGLIMHQVTHFRG [A12D] the protein stability index was 3.09. In the case of CTHCSKSFRQRYGLIMHQVTHFRG [A12Y], the protein stability index is reported as 1.9. Work on CTHCSKSFRQRMGLIMHQVTHFRG [A12M] yielded a protein stability index of 2.25. For CTHCSKSFRQRWGLIMHQVTHFRG [A12W], the protein stability index was 2.53. CTHCSKSFRQRHGLIMHQVTHFRG [A12H] showed a protein stability index of 1.88. CTHCSKSFRQRKGLIMHQVTHFRG [A12K] gave a protein stability index of 3.49. Variant CTHCSKSFRQRQGLIMHQVTHFRG [A12Q] has a protein stability index of 3.53. Variant CTHCSKSFRQRTGLIMHQVTHFRG [A12T] has a protein stability index of 2.2. For CTHCSKSFRQRFGLIMHQVTHFRG [A12F], the protein stability index was 2.25. With CTHCSKSFRQRRGLIMHQVTHFRG [A12R] the protein stability index was 3.35. Work on CTHCSKSFRQRVGLIMHQVTHFRG [A12V] yielded a protein stability index of 1.48. With CTHCSKSFRQRNGLIMHQVTHFRG [A12N] the protein stability index was 2.06. Variant CTHCSKSFRWRAGLIMHQVTHFRG [Q10W] has a protein stability index of 2.77. Work on CTHCSKSFRERAGLIMHQVTHFRG [Q10E] yielded a protein stability index of 2.61. CTHCSKSFRRRAGLIMHQVTHFRG [Q10R] showed a protein stability index of 1.6. Variant CTHCSKSFRLRAGLIMHQVTHFRG [Q10L] has a protein stability index of 1.59. In the case of CTHCSKSFRYRAGLIMHQVTHFRG [Q10Y], the protein stability index is reported as 1.95. Variant CTHCSKSFRVRAGLIMHQVTHFRG [Q10V] has a protein stability index of 2.19. For CTHCSKSFRFRAGLIMHQVTHFRG [Q10F], the protein stability index was 1.9. Variant CTHCSKSFRPRAGLIMHQVTHFRG [Q10P] has a protein stability index of 1.76. For CTHCSKSFRNRAGLIMHQVTHFRG [Q10N], the protein stability index was 2.15. For CTHCSKSFRHRAGLIMHQVTHFRG [Q10H], the protein stability index was 2.13. For CTHCSKSFRCRAGLIMHQVTHFRG [Q10C], the protein stability index was 2.43. Variant CTHCSKSFRKRAGLIMHQVTHFRG [Q10K] has a protein stability index of 2.58. With CTHCSKSFRMRAGLIMHQVTHFRG [Q10M] the protein stability index was 1.86. Work on CTHCSKSFRDRAGLIMHQVTHFRG [Q10D] yielded a protein stability index of 3.41. For CTHCSKSFRARAGLIMHQVTHFRG [Q10A], the protein stability index was 2.51. Variant CTHCSKSFRIRAGLIMHQVTHFRG [Q10I] has a protein stability index of 1.67. With CTHCSKSFRSRAGLIMHQVTHFRG [Q10S] the protein stability index was 1.99. Work on CTHCSKSFRTRAGLIMHQVTHFRG [Q10T] yielded a protein stability index of 2.75. CTHCSKSFQQRAGLIMHQVTHFRG [R9Q] gave a protein stability index of 2.63. Work on CTHCSKSFTQRAGLIMHQVTHFRG [R9T] yielded a protein stability index of 2.77. CTHCSKSFSQRAGLIMHQVTHFRG [R9S] gave a protein stability index of 3.04. Work on CTHCSKSFNQRAGLIMHQVTHFRG [R9N] yielded a protein stability index of 2.77. In the case of CTHCSKSFPQRAGLIMHQVTHFRG [R9P], the protein stability index is reported as 2.29. CTHCSKSFYQRAGLIMHQVTHFRG [R9Y] showed a protein stability index of 1.79. With CTHCSKSFWQRAGLIMHQVTHFRG [R9W] the protein stability index was 2.07. In the case of CTHCSKSFVQRAGLIMHQVTHFRG [R9V], the protein stability index is reported as 3.17. CTHCSKSFRQRAWLIMHQVTHFRG [G13W] showed a protein stability index of 1.87. Work on CTHCSKSFRQRASLIMHQVTHFRG [G13S] yielded a protein stability index of 1.52. With CTHCSKSFRQRALLIMHQVTHFRG [G13L] the protein stability index was 1.68. CTHCSKSFRQRAHLIMHQVTHFRG [G13H] gave a protein stability index of 1.4. CTHCSKSFRQRACLIMHQVTHFRG [G13C] showed a protein stability index of 1.07. CTHCSKSFRQRAKLIMHQVTHFRG [G13K] gave a protein stability index of 2.06. CTHCSKSFRQRAMLIMHQVTHFRG [G13M] gave a protein stability index of 2.12. CTHCSKSFRQRAALIMHQVTHFRG [G13A] showed a protein stability index of 2.47. For CTHCSKSFRQRAFLIMHQVTHFRG [G13F], the protein stability index was 1.95. In the case of CTHCSKSFRQRAYLIMHQVTHFRG [G13Y], the protein stability index is reported as 1.31. CTHCSKSFRQRAVLIMHQVTHFRG [G13V] gave a protein stability index of 2.58. CTHCSKSFRQRARLIMHQVTHFRG [G13R] showed a protein stability index of 2.65. For CTHCSKSFRQRANLIMHQVTHFRG [G13N], the protein stability index was 2.69. CTHCSKSFRQRAQLIMHQVTHFRG [G13Q] gave a protein stability index of 2.87. Work on CTHCSKSFRQRATLIMHQVTHFRG [G13T] yielded a protein stability index of 2.36. Variant CTHCSKSFRQRAELIMHQVTHFRG [G13E] has a protein stability index of 3.16. Work on CTHCSKSFRQRAPLIMHQVTHFRG [G13P] yielded a protein stability index of 1.23. Variant CTHCSKSFRQRAILIMHQVTHFRG [G13I] has a protein stability index of 1.96. CTHCSKSFRQRAGFIMHQVTHFRG [L14F] showed a protein stability index of 2.54. CTHCSKSFRQRAGIIMHQVTHFRG [L14I] showed a protein stability index of 1.3. CTHCSKSFRQRAGHIMHQVTHFRG [L14H] gave a protein stability index of 2. In the case of CTHCSKSFRQRAGDIMHQVTHFRG [L14D], the protein stability index is reported as 2.14. In the case of CTHCSKSFRQRAGMIMHQVTHFRG [L14M], the protein stability index is reported as 1.97. For CTHCSKSFRQRAGGIMHQVTHFRG [L14G], the protein stability index was 1.41. With CTHCSKSFRQRAGNIMHQVTHFRG [L14N] the protein stability index was 1.49. For CTHCSKSFRQRAGEIMHQVTHFRG [L14E], the protein stability index was 1.95. For CTHCSKSFRQRAGPIMHQVTHFRG [L14P], the protein stability index was 1.54. In the case of CTHCSKSFRQRAGKIMHQVTHFRG [L14K], the protein stability index is reported as 2.05. CTHCSKSFRQRAGQIMHQVTHFRG [L14Q] gave a protein stability index of 2.02. Work on CTHCSKSFRQRAGRIMHQVTHFRG [L14R] yielded a protein stability index of 2.01. For CTHCSKSFRQRAGCIMHQVTHFRG [L14C], the protein stability index was 1.73. Variant CTHCSKSFRQRAGSIMHQVTHFRG [L14S] has a protein stability index of 1.9.
